Experimental data from patent publication US20090148464A1.

Biological target: His-tagged recombinant MIF (macrophage migration inhibitory factor), expressed in Escherichia coli from pQE30
Assay: SPR, BIAcore 2000, His-tagged MIF on Sensor Chip NTA, TRX as analyte, 1:1 binding with drifting baseline model

Sequence of His-tagged recombinant MIF (macrophage migration inhibitory factor), expressed in Escherichia coli from pQE30 (P14174 2-115): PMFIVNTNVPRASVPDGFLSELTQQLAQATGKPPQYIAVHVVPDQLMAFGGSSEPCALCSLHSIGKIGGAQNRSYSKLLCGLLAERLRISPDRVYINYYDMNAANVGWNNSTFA

Recombinant TRX (Ajinomoto Co., Inc.) gave a Kd of 9.96 nM and a kon of 120 M⁻¹ s⁻¹.
